Tests used:
Experiment in all cases: Specificity assay, fraction of remaining proteolytic activity
Type in all cases: biochemical
TF-FVIIa = target: T1, TF-FVIIa (Homo sapiens, UniProt P08709); details: 100 nM inhibitor; TF 77 nM, FVIIa 14 nM
T1 construct: purchased Haematologic Technologies Inc. (Essex Jct., VT) for FVIIa; TF made in house; host or cells: TF1-243: E. coli
Experimental: (§1) Aliquots (30 μL) of various inhibitors diluted to 500 nM were incubated with each protease (100 μL) in the appropriate buffer. After incubation of the substrate/inhibitor mixes at room temperature for 2 h, the appropriate substrate (20 μL) was added, and the absorbance at 405 nm was monitored. Controls lacking inhibitor and enzyme were assayed to measure the uninhibited and substrate hydrolysis rates, respectively. […] The FXIa assay also contained 1 mg/mL BSA. The concentration of FXIa throughout refers to the concentration of active sites. For this experiment, the concentrations of thrombin, TF-FVIIa, FXa, FXIa, FXIIa, and plasmin are 25 approximate and are determined based upon the manufacturers, specifications.
(§2) Serine proteases (1 to 20 nM) were assayed in the presence of 100 nM inhibitor.

Factor XIa = target: T2, Factor XIa (Homo sapiens, UniProt P03951); details: 100 nM inhibitor; […] enzyme
T2 construct: purchased Haematologic Technologies Inc. (Essex Jct., VT)
Experimental: as §1, §2

plasmin = target: T3, plasmin (Homo sapiens, UniProt P00747); details: 100 nM inhibitor; 32 nM enzyme
T3 construct: Human plasmin, S-2302, S-2251, and S-2366 were purchased from Kabi Vitrum (Sweden); purchased Kabi Vitrum (Sweden)
Experimental: as §1, §2

Factor XIIa = target: T4, Factor XIIa (Homo sapiens, UniProt P00748); details: 100 nM inhibitor; 14 nM enzyme
T4 construct: purchased Enzyme Research Laboratories, Inc. (South Bend, Ind)
T4 sequence (P00748 20-372 limits assumed): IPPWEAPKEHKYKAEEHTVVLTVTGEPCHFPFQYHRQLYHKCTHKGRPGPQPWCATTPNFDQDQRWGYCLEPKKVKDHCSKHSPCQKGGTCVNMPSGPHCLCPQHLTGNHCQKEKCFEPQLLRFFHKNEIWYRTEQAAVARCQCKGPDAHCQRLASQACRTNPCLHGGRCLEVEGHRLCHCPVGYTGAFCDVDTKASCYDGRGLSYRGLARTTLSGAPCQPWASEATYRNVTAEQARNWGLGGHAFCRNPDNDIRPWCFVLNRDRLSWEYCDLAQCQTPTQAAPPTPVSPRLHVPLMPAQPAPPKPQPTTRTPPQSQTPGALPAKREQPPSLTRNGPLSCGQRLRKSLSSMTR
T4 sequence (P00748 373-615 limits assumed): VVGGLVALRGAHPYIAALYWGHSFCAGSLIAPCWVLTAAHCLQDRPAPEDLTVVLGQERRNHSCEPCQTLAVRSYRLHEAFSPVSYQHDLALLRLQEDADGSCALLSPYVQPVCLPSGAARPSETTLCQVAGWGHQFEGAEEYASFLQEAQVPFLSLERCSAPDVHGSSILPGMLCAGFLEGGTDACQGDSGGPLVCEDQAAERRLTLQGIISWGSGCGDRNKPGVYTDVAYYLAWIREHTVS
Experimental: as §1, §2

plasma kallikrein = target: T5, plasma kallikrein (Homo sapiens, UniProt P03952); details: 100 nM inhibitor; 3.5 nM enzyme
T5 construct: Human plasma kallikrein and Factor XIIa were purchased; purchased Enzyme Research Laboratories, Inc. (South Bend, Ind)
Experimental: as §1, §2

thrombin = target: T6, thrombin (Homo sapiens, UniProt P00734); details: 100 nM inhibitor; 6.2 nM enzyme
T6 construct: purchased Haematologic Technologies Inc. (Essex Jct., VT)
Experimental: as §1, §2

activated protein C = target: T7, activated protein C (Homo sapiens, UniProt P04070); details: 100 nM inhibitor; 7.6 nM enzyme
T7 construct: purchased Haematologic Technologies Inc. (Essex Jct., VT)
Experimental: as §1, §2

Factor Xa = target: T8, Factor Xa (Homo sapiens, UniProt P00742); details: 100 nM inhibitor; 2.5 nM enzyme
T8 construct: purchased Haematologic Technologies Inc. (Essex Jct., VT)
T8 sequence (P00742 41-179 limits assumed): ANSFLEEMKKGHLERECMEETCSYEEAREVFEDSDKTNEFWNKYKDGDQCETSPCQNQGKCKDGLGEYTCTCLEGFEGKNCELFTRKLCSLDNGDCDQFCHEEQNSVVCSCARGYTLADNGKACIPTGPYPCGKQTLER
T8 sequence (P00742 235-488 limits assumed): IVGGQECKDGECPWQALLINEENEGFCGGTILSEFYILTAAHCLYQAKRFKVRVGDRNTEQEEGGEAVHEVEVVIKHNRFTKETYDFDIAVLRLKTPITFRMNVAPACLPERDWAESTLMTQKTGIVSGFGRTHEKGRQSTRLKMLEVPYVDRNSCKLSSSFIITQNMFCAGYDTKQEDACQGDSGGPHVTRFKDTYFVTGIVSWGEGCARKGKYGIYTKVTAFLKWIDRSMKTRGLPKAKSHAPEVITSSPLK
Experimental: as §1, §2

T5 sequence (P03952 20-390 limits assumed): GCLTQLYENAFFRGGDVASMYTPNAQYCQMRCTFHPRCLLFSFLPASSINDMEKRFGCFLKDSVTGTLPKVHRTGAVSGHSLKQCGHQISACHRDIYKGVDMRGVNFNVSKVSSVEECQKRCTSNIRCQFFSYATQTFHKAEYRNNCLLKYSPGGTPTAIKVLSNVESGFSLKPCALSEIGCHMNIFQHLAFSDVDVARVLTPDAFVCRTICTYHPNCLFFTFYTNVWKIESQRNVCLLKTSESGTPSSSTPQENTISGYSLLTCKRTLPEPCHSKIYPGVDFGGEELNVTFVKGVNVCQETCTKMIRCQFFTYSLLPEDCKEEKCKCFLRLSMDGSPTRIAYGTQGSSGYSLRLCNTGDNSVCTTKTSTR
T5 sequence (P03952 391-638 limits assumed): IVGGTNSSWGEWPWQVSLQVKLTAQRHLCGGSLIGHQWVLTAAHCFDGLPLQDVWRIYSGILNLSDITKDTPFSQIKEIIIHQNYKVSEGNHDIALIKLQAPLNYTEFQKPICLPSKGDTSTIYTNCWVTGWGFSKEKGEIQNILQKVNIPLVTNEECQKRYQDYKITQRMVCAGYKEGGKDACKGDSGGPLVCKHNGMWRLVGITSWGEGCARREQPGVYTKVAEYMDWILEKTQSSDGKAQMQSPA
T2 sequence (P03951 19-387 limits assumed): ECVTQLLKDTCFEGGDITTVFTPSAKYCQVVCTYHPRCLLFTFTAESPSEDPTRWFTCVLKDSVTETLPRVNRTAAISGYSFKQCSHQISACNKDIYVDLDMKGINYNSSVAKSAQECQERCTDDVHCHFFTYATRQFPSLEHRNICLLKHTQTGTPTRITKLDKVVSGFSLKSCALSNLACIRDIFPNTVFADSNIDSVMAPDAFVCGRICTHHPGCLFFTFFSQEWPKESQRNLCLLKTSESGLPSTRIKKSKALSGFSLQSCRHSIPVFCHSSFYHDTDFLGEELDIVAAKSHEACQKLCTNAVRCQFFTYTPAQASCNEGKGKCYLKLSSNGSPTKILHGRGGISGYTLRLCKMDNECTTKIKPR
T2 sequence (P03951 388-625 limits assumed): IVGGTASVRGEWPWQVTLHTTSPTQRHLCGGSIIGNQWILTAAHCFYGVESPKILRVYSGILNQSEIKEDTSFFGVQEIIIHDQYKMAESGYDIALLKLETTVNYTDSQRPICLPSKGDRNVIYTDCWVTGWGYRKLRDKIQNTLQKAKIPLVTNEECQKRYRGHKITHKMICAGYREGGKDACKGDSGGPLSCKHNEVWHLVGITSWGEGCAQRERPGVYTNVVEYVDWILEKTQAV
T1 sequence (P08709 61-212 limits assumed): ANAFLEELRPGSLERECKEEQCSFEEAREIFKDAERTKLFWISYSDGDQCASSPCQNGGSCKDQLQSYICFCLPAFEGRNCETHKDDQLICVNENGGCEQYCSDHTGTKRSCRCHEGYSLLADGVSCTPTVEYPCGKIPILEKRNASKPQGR
T1 sequence (P08709 213-466 limits assumed): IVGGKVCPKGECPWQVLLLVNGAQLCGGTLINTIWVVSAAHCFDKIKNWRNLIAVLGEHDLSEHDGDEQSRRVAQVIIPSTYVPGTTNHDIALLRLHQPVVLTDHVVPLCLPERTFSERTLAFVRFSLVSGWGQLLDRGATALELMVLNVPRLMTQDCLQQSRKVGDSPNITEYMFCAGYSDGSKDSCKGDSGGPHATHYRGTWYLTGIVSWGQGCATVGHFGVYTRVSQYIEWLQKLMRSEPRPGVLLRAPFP
T1 sequence (P13726 33-275 partner limits assumed): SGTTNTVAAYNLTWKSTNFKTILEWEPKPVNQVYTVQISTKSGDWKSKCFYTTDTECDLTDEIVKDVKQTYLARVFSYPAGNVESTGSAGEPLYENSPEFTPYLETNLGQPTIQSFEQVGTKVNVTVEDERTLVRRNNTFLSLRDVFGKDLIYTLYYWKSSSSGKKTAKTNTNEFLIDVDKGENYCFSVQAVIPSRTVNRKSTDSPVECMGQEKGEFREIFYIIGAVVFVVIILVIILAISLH
T3 sequence (P00747 97-580 limits assumed): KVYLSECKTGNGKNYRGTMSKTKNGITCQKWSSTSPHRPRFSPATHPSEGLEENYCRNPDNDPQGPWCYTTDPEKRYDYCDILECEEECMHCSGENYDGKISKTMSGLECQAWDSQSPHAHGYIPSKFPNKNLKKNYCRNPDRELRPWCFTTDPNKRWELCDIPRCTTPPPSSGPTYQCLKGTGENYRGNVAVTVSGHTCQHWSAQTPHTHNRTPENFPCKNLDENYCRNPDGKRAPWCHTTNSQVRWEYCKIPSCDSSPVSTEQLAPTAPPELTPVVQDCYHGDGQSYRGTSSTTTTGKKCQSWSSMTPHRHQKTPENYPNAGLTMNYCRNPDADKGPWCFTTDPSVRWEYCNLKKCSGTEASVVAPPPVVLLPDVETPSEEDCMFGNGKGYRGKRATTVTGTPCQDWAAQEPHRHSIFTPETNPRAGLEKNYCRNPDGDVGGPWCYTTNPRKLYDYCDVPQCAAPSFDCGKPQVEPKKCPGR
T3 sequence (P00747 581-810 limits assumed): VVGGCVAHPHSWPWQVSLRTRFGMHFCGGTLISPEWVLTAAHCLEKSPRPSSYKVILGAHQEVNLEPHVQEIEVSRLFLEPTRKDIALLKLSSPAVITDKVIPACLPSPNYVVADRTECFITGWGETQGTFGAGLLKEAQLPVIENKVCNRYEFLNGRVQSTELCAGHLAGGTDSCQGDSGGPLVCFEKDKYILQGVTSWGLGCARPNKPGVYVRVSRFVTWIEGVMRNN
T7 sequence (P04070 43-197 limits assumed): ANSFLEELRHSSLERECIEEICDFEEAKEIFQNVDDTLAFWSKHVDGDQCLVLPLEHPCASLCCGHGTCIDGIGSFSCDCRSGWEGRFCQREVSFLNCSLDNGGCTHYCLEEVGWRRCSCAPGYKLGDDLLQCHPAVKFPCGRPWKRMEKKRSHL
T7 sequence (P04070 212-461 limits assumed): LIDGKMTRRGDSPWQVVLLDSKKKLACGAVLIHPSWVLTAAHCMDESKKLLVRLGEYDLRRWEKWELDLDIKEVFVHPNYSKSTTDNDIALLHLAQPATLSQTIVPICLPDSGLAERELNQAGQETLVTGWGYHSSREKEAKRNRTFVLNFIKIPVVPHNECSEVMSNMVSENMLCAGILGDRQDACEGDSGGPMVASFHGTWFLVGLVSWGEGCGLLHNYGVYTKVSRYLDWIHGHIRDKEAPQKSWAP

Substance | fraction of remaining proteolytic activity, TF·Factor VIIa (TF-FVIIa) | fraction of remaining proteolytic activity, Factor XIa (Factor XIa) | fraction of remaining proteolytic activity, plasmin (plasmin) | fraction of remaining proteolytic activity, Factor XIIa (Factor XIIa) | fraction of remaining proteolytic activity, plasma kallikrein (plasma kallikrein) | fraction of remaining proteolytic activity, thrombin (thrombin) | fraction of remaining proteolytic activity, activated protein C (activated protein C) | fraction of remaining proteolytic activity, Factor Xa (Factor Xa)
KALI-8: APPI Kunitz domain mutant, R1 LGHCRAAIPR2 FR3 (SEQ ID NO: 3) (VREVCSEQAELGHCRAAIPRWYFDVTEGKCAPFFYGGCGGNRNNFDTEEYCAAVCGSA) | 0.94 | 0.00 | 0.83 | 1.00 | 0.00 | 0.99 | 0.89 | 
KALI-13: APPI Kunitz domain mutant, R1 SGHCRAAIPR2 FR3 (SEQ ID NO: 1) (VREVCSEQAESGHCRAAIPRWYFDVTEGKCAPFFYGGCGGNRNNFDTEEYCAAVCGSA) | 0.96 | 0.01 | 0.65 | 1.00 | 0.00 | 0.96 | 0.90 | 0.97
KALI-30: APPI Kunitz domain mutant, R1 EGHCRAAILR2 FR3 (SEQ ID NO: 5) (VREVCSEQAEEGHCRAAILRWYFDVTEGKCAPFFYGGCGGNRNNFDTEEYCAAVCGSA) |  | 0.00 | 0.53 | 0.92 | 0.00 | 1.00 | 0.81 | 0.68
KALI-46: APPI Kunitz domain mutant, R1 EGRCRASILR2 FR3 (SEQ ID NO: 33) (VREVCSEQAEEGRCRASILRWYFDVTEGKCAPFFYGGCGGNRNNFDTEEYCAAVCGSA) | 0.86 | 0.00 | 0.64 | 0.97 | 0.00 | 0.99 | 0.83 | 
KALI-48: APPI Kunitz domain mutant, R1 TGHCRAAIPR2 FR3 (SEQ ID NO: 2) (VREVCSEQAETGHCRAAIPRWYFDVTEGKCAPFFYGGCGGNRNNFDTEEYCAAVCGSA) | 0.95 | 0.01 | 0.23 | 0.99 | 0.00 | 0.99 | 0.92 | 0.55
